Test results: US20220073617A1 (Five Prime, published 2022)

Experiments:
[1] = target: T1, monovalent hVISTA-ECD (human VISTA extracellular domain with His tail) (human, UniProt Q9H7M9 33-193); assay: SPR, pH 6.0
T1 construct: analyte flowed over captured antibody; also called huVISTA-His
Method: (§1) Binding of several preparations of each of the '029 progeny clones and of the parent '029 antibodies, formatted as IgG1.3 antibodies, to human VISTA at pH 6.0 and 7.4 was measured by Surface plasmon resonance (SPR). SPR analysis was performed to measure koff and KD binding affinity measurements for VISTA Abs at acidic and neutral pHs using a Biacore® T100 instrument (GE Healthcare). Protein A (ThermoFisher Scientific catalog #21181) was diluted to 20 ug/ml in 10 mM sodium acetate pH 4.5 and immobilized onto flow cells of a CM5 biosensor following the manufacturer's amine coupling protocol (GE Healthcare), targeting 2,000 RU immobilization density of Protein A per flow cell. SPR experiments were conducted at 37° C. using PBST (137 mM sodium chloride, 2.7 mM potassium chloride, 10 mM phosphate buffer, 0.05% Tween® 20) running buffer at pH 7.4 and 6.0. Antibodies were diluted to 25 nM in PBST pH 7.4, and were captured across active biosensor flow cells at 5 ul/min for 60 seconds. […] Two 15 second injections of 10 mM glycine pH 1.5 were used to regenerate the Protein A capture surface between assay cycles. Rate constants ka (kₒₙ) and kd (koff) were derived from reference flow cell and 0 nM blank-subtracted sensorgrams, and were fit to a 1:1 binding model in Biacore® T200 Evaluation Software v.2.0. The affinity constant, KD was calculated as the ratio of rate constants koff/kₒₙ for each VISTA antibody. […]

[2] = target: T1, monovalent hVISTA-ECD (human VISTA …); assay: SPR, pH 7.4
Method: as §1

[3] = target: T1, monovalent hVISTA-ECD (human VISTA …); assay: SPR
Method: as §1

T1 sequence (Q9H7M9 other isoform, or with tags, fused parts or gaps limits assumed): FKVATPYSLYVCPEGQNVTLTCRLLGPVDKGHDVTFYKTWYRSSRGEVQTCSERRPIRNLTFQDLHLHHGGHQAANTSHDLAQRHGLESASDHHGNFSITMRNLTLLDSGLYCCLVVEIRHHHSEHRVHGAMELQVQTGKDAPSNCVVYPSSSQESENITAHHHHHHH

B1: P1-064472 (41F11_VH_F27E) (antibody, V domains shown)
VH: QVQLVESGGGLVKPGGSLRLSCAASGETFSDYYMSWIRQAPGKGLEWVSYISNSGSPIYYADSVKGRFTISRDNAKNSLYLQMNSLRAEDTAVYYCARDLPGWYFDLWGRGTLVTVSS
VL: EIVLTQSPATLSLSPGERATLSCRASQSVSSYLAWYQQKPGQAPRLLIYDASNRATGIPARFSASGSGTDFTLTISSLEPEDFAVYYCQQRNNWPRTFGQGTKVEIK
notes: Kabat positions; also called P1-064472-1
- Kd [1]: 18 nM
- koff [1]: 0.0411 s⁻¹
- kon [1]: 2.29e+06 M⁻¹ s⁻¹
- Kd [2]: 3.6 nM
- koff [2]: 0.000987 s⁻¹
- kon [2]: 274000 M⁻¹ s⁻¹
- KD ratio (pH 7.4/pH 6.0) [3]: 0.2

B2: P1-064478 (41F11_VH_Y50E) (antibody, V domains shown)
VH: QVQLVESGGGLVKPGGSLRLSCAASGFTFSDYYMSWIRQAPGKGLEWVSEISNSGSPIYYADSVKGRFTISRDNAKNSLYLQMNSLRAEDTAVYYCARDLPGWYFDLWGRGTLVTVSS
VL: EIVLTQSPATLSLSPGERATLSCRASQSVSSYLAWYQQKPGQAPRLLIYDASNRATGIPARFSASGSGTDFTLTISSLEPEDFAVYYCQQRNNWPRTFGQGTKVEIK
notes: Kabat positions; also called P1-064478-1
- Kd [1]: 96.5 nM
- koff [1]: 0.0121 s⁻¹
- kon [1]: 126000 M⁻¹ s⁻¹
- Kd [2]: 6.89 nM
- koff [2]: 0.000381 s⁻¹
- kon [2]: 55400 M⁻¹ s⁻¹
- KD ratio (pH 7.4/pH 6.0) [3]: 0.07

B3: P1-064480 (41F11_VH_A60H) (antibody, V domains shown)
VH: QVQLVESGGGLVKPGGSLRLSCAASGFTFSDYYMSWIRQAPGKGLEWVSYISNSGSPIYYHDSVKGRFTISRDNAKNSLYLQMNSLRAEDTAVYYCARDLPGWYFDLWGRGTLVTVSS
VL: EIVLTQSPATLSLSPGERATLSCRASQSVSSYLAWYQQKPGQAPRLLIYDASNRATGIPARFSASGSGTDFTLTISSLEPEDFAVYYCQQRNNWPRTFGQGTKVEIK
notes: Kabat positions; also called P1-064480-1
- Kd [1]: 14.2 nM
- koff [1]: 0.0329 s⁻¹
- kon [1]: 2.32e+06 M⁻¹ s⁻¹
- Kd [2]: 2.36 nM
- koff [2]: 0.000755 s⁻¹
- kon [2]: 320000 M⁻¹ s⁻¹
- KD ratio (pH 7.4/pH 6.0) [3]: 0.17

B4: P1-064484 (41F11_VH_L96E) (antibody, V domains shown)
VH: QVQLVESGGGLVKPGGSLRLSCAASGFTFSDYYMSWIRQAPGKGLEWVSYISNSGSPIYYADSVKGRFTISRDNAKNSLYLQMNSLRAEDTAVYYCARDEPGWYFDLWGRGTLVTVSS
VL: EIVLTQSPATLSLSPGERATLSCRASQSVSSYLAWYQQKPGQAPRLLIYDASNRATGIPARFSASGSGTDFTLTISSLEPEDFAVYYCQQRNNWPRTFGQGTKVEIK
notes: Kabat positions; also called P1-064484-1
- Kd [1]: 7.18 nM
- koff [1]: 0.0153 s⁻¹
- kon [1]: 2.13e+06 M⁻¹ s⁻¹
- Kd [2]: 26.1 nM
- koff [2]: 0.00353 s⁻¹
- kon [2]: 135000 M⁻¹ s⁻¹
- KD ratio (pH 7.4/pH 6.0) [3]: 3.64

B5: P1-064486 (41F11_VH_F100aG) (antibody, V domains shown)
VH: QVQLVESGGGLVKPGGSLRLSCAASGFTFSDYYMSWIRQAPGKGLEWVSYISNSGSPIYYADSVKGRFTISRDNAKNSLYLQMNSLRAEDTAVYYCARDLPGWYGDLWGRGTLVTVSS
VL: EIVLTQSPATLSLSPGERATLSCRASQSVSSYLAWYQQKPGQAPRLLIYDASNRATGIPARFSASGSGTDFTLTISSLEPEDFAVYYCQQRNNWPRTFGQGTKVEIK
notes: Kabat positions; also called P1-064486-1
- Kd [1]: 34.3 nM
- koff [1]: 0.105 s⁻¹
- kon [1]: 3.07e+06 M⁻¹ s⁻¹
- Kd [2]: 15.3 nM
- koff [2]: 0.00341 s⁻¹
- kon [2]: 223000 M⁻¹ s⁻¹
- KD ratio (pH 7.4/pH 6.0) [3]: 0.45

B6: P1-064494 (41F11_Vk_A25EA64G) (antibody, V domains shown)
VH: QVQLVESGGGLVKPGGSLRLSCAASGFTFSDYYMSWIRQAPGKGLEWVSYISNSGSPIYYADSVKGRFTISRDNAKNSLYLQMNSLRAEDTAVYYCARDLPGWYFDLWGRGTLVTVSS
VL: EIVLTQSPATLSLSPGERATLSCRESQSVSSYLAWYQQKPGQAPRLLIYDASNRATGIPARFSGSGSGTDFTLTISSLEPEDFAVYYCQQRNNWPRTFGQGTKVEIK
notes: also called P1-064494-1
- Kd [1]: 35.6 nM
- koff [1]: 0.0485 s⁻¹
- kon [1]: 1.36e+06 M⁻¹ s⁻¹
- Kd [2]: 10.3 nM
- koff [2]: 0.00207 s⁻¹
- kon [2]: 200000 M⁻¹ s⁻¹
- KD ratio (pH 7.4/pH 6.0) [3]: 0.29

B7: P1-064500 (41F11_Vk_Q90DA64G) (antibody, V domains shown)
VH: QVQLVESGGGLVKPGGSLRLSCAASGFTFSDYYMSWIRQAPGKGLEWVSYISNSGSPIYYADSVKGRFTISRDNAKNSLYLQMNSLRAEDTAVYYCARDLPGWYFDLWGRGTLVTVSS
VL: EIVLTQSPATLSLSPGERATLSCRASQSVSSYLAWYQQKPGQAPRLLIYDASNRATGIPARFSGSGSGTDFTLTISSLEPEDFAVYYCQDRNNWPRTFGQGTKVEIK
notes: also called P1-064500-1
- Kd [1]: 94.1 nM
- koff [1]: 0.157 s⁻¹
- kon [1]: 1.67e+06 M⁻¹ s⁻¹
- Kd [2]: 44.7 nM
- koff [2]: 0.0145 s⁻¹
- kon [2]: 325000 M⁻¹ s⁻¹
- KD ratio (pH 7.4/pH 6.0) [3]: 0.48

B8: P1-064502 (41F11_Vk_R96YA64G) (antibody, V domains shown)
VH: QVQLVESGGGLVKPGGSLRLSCAASGFTFSDYYMSWIRQAPGKGLEWVSYISNSGSPIYYADSVKGRFTISRDNAKNSLYLQMNSLRAEDTAVYYCARDLPGWYFDLWGRGTLVTVSS
VL: EIVLTQSPATLSLSPGERATLSCRASQSVSSYLAWYQQKPGQAPRLLIYDASNRATGIPARFSGSGSGTDFTLTISSLEPEDFAVYYCQQRNNWPYTFGQGTKVEIK
notes: also called P1-064502-1
- Kd [1]: 81.7 nM
- koff [1]: 0.332 s⁻¹
- kon [1]: 4.06e+06 M⁻¹ s⁻¹
- Kd [2]: 40.8 nM
- koff [2]: 0.0123 s⁻¹
- kon [2]: 301000 M⁻¹ s⁻¹
- KD ratio (pH 7.4/pH 6.0) [3]: 0.5

B9: P1-064516 (41F11_Vk_V29D/A64G/R91T/R96Y) (antibody, V domains shown)
VH: QVQLVESGGGLVKPGGSLRLSCAASGFTFSDYYMSWIRQAPGKGLEWVSYISNSGSPIYYADSVKGRFTISRDNAKNSLYLQMNSLRAEDTAVYYCARDLPGWYFDLWGRGTLVTVSS
VL: EIVLTQSPATLSLSPGERATLSCRASQSDSSYLAWYQQKPGQAPRLLIYDASNRATGIPARFSGSGSGTDFTLTISSLEPEDFAVYYCQQTNNWPYTFGQGTKVEIK
notes: also called P1-064516-1
- Kd [1]: 7.81 nM
- koff [1]: 0.0178 s⁻¹
- kon [1]: 2.28e+06 M⁻¹ s⁻¹
- Kd [2]: 19.1 nM
- koff [2]: 0.00223 s⁻¹
- kon [2]: 117000 M⁻¹ s⁻¹
- KD ratio (pH 7.4/pH 6.0) [3]: 2.45

B10: P1-064526 (41F11_VH_D31E/Y50W/S55E/A60H/Y100E) (antibody, V domains shown)
VH: QVQLVESGGGLVKPGGSLRLSCAASGFTFSEYYMSWIRQAPGKGLEWVSWISNSGEPIYYHDSVKGRFTISRDNAKNSLYLQMNSLRAEDTAVYYCARDLPGWEFDLWGRGTLVTVSS
VL: EIVLTQSPATLSLSPGERATLSCRASQSVSSYLAWYQQKPGQAPRLLIYDASNRATGIPARFSASGSGTDFTLTISSLEPEDFAVYYCQQRNNWPRTFGQGTKVEIK
notes: Kabat positions; also called P1-064526-1
- Kd [1]: 0.245 nM
- koff [1]: 0.00094 s⁻¹
- kon [1]: 3.84e+06 M⁻¹ s⁻¹
- Kd [2]: 0.196 nM
- koff [2]: 0.000109 s⁻¹
- kon [2]: 555000 M⁻¹ s⁻¹
- KD ratio (pH 7.4/pH 6.0) [3]: 0.8

B11: P1-064528 (41F11_VH_D31E/Y50W/S55E/L96E/Y100E) (antibody, V domains shown)
VH: QVQLVESGGGLVKPGGSLRLSCAASGFTFSEYYMSWIRQAPGKGLEWVSWISNSGEPIYYADSVKGRFTISRDNAKNSLYLQMNSLRAEDTAVYYCARDEPGWEFDLWGRGTLVTVSS
VL: EIVLTQSPATLSLSPGERATLSCRASQSVSSYLAWYQQKPGQAPRLLIYDASNRATGIPARFSASGSGTDFTLTISSLEPEDFAVYYCQQRNNWPRTFGQGTKVEIK
notes: Kabat positions; also called P1-064528-1
- Kd [1]: 0.167 nM
- koff [1]: 0.000584 s⁻¹
- kon [1]: 3.49e+06 M⁻¹ s⁻¹
- Kd [2]: 0.768 nM
- koff [2]: 0.000227 s⁻¹
- kon [2]: 296000 M⁻¹ s⁻¹
- KD ratio (pH 7.4/pH 6.0) [3]: 4.6

B12: P1-064534 (41F11_VH_D31E/S35Y/Y50W/S55E/A60H/Y100E/F100aG) (antibody, V domains shown)
VH: QVQLVESGGGLVKPGGSLRLSCAASGFTFSEYYMYWIRQAPGKGLEWVSWISNSGEPIYYHDSVKGRFTISRDNAKNSLYLQMNSLRAEDTAVYYCARDLPGWEGDLWGRGTLVTVSS
VL: EIVLTQSPATLSLSPGERATLSCRASQSVSSYLAWYQQKPGQAPRLLIYDASNRATGIPARFSASGSGTDFTLTISSLEPEDFAVYYCQQRNNWPRTFGQGTKVEIK
notes: Kabat positions; also called P1-064534-1
- Kd [1]: 9.05 nM
- koff [1]: 0.00649 s⁻¹
- kon [1]: 717000 M⁻¹ s⁻¹
- Kd [2]: 16.2 nM
- koff [2]: 0.000675 s⁻¹
- kon [2]: 41700 M⁻¹ s⁻¹
- KD ratio (pH 7.4/pH 6.0) [3]: 1.79

B13: P1-064540 (41F11_VH_T28P/Y50W/S55E/A60H/Y100E) (antibody, V domains shown)
VH: QVQLVESGGGLVKPGGSLRLSCAASGFPFSDYYMSWIRQAPGKGLEWVSWISNSGEPIYYHDSVKGRFTISRDNAKNSLYLQMNSLRAEDTAVYYCARDLPGWEFDLWGRGTLVTVSS
VL: EIVLTQSPATLSLSPGERATLSCRASQSVSSYLAWYQQKPGQAPRLLIYDASNRATGIPARFSASGSGTDFTLTISSLEPEDFAVYYCQQRNNWPRTFGQGTKVEIK
notes: Kabat positions; also called P1-064540-1
- Kd [1]: 0.268 nM
- koff [1]: 0.00192 s⁻¹
- kon [1]: 7.16e+06 M⁻¹ s⁻¹
- Kd [2]: 0.285 nM
- koff [2]: 0.000158 s⁻¹
- kon [2]: 553000 M⁻¹ s⁻¹
- KD ratio (pH 7.4/pH 6.0) [3]: 1.06

B14: P1-065312 (41F11_VH_F27E VK_A64G) (antibody, V domains shown)
VH: QVQLVESGGGLVKPGGSLRLSCAASGETFSDYYMSWIRQAPGKGLEWVSYISNSGSPIYYADSVKGRFTISRDNAKNSLYLQMNSLRAEDTAVYYCARDLPGWYFDLWGRGTLVTVSS
VL: EIVLTQSPATLSLSPGERATLSCRASQSVSSYLAWYQQKPGQAPRLLIYDASNRATGIPARFSGSGSGTDFTLTISSLEPEDFAVYYCQQRNNWPRTFGQGTKVEIK
notes: Kabat positions; also called P1-065312-1
- Kd [1]: 22.3 nM
- koff [1]: 0.0449 s⁻¹
- kon [1]: 2.01e+06 M⁻¹ s⁻¹
- Kd [2]: 6.61 nM
- koff [2]: 0.00131 s⁻¹
- kon [2]: 198000 M⁻¹ s⁻¹
- KD ratio (pH 7.4/pH 6.0) [3]: 0.3
